Data reported in patent US12371726B2, “Process to produce mono-rhamnolipids” (Conopco, Inc., priority 2021, dated 2025).

B1: enzyme from A. terreus: recombinant α-L-rhamnosidase from Aspergillus terreus, prepared internally, secreted in P. pastoris; SEQ ID. 1 (protein, listed as Aspergillus terreus)
chain: MALSISQVAFEHHRTALGIGETQPRVSWRFDGNVSDWEQRAYEIEVKRAGHDADVFRSESSDSVLVPWPSSPLQSGEEATVRVRSFGSDGQHDTPWSDAVTVEPGLLTPDDWHDAVVIASDRPTEVDATHRPIQFRKEFSVDDSYVSARLYITALGLYEARINDQRVGDHVMAPGWQSYQYRHEYNTYDVTDLLKQGPNAIGVTVGEGWYSGRIGYDGGKRNIYGDTLGLLSLLVVTKSDGSKLYIPSDSSWKSSTGPIISSEIYDGEEYDSRLEQKGWSQVGFNSTGWLGTHELSFPKERLASPDGPPVRRVAEHKLANVFSSASGKTVLDFGQNLVGWLRIRVKGPKGQTIRFVHTEVMENGEVATRPLRQAKATDHFTLSGEGVQEWEPSFTYHGFRYVQVDGWPADTPLDENSVTAIVVHSDMERTGYFECSNPLISKLHENILWSMRGNFFSIPTDCPQRDERLGWTGDIHAFSRTANFIYDTAGFLRAWLKDARSEQLNHSYSLPYVIPNIHGNGETPTSIWGDAIVGVPWQLYESFGDKVMLEEQYGGAKDWVDKGIVRNDVGLWDRSTFQWADWLDPKAPADDPGDATTNKYLVSDAYLLHSTDMLANISTSLSKGEEASNYTEWHAKLTKEFQKAWITSNGTMANETQTGLALPLYFDLFPSAEQAQSAAKRLVNIIKQNDYKVGTGFAGTHLLGHTLSKYGESDAFYSMLRQTEVPSWLYQVVMNGTTTWERWDSMLPNGSINPGQMTSFNHYAVGSVGSWLHEVIGGLSPAEPGWRRINIEVVPGGDLQQASTKFLTPYGMASTKWWLDGQDQSCGGFDFHLVAEVPPNTRATVVLPGKGGEKVDVGSGVHEYHVRCVKL
B2: enzyme from A. niger: α-L-rhamnosidase from Aspergillus niger obtained from Megazyme LTD; SEQ ID. 2 (protein)
chain: MAPIALKILLFTSLIVPSISLSDQARNGHARTICEVKPGGSSEIDDVPAIVDALTTCGSGGRVIFSNNTYHINSVMNTTWLDDVEIDLQGTLLWSTNISYWLNHSLPVGYQNQSTAWILGGKDIVFEGHGYGTFNGSGQTWYRYVGSTSNYPRRPNQLTVSGAMGAVFKGLRFVQSQMWTMSIIHTSNSWFDSIYVNNLYDDGGSAQNTDGANTIYSKNITLTNWEVVNGDDSISTKANSTDITIANCTFTSGLGIAIGSIGQYNGAFETVERLKISNITYEKTTHAVYFKTWTGDQVGYPPNGGGGGLGYASDIVATNLKTNNLKGAPFTISQCTTFSGASGNCTNSKFQIRDLVFTDISGTTDSSDVASFQCSAVAPCEDITIENVSLRIAGNTTHAEEYLCGNVDGTVGFNCTGDVCVGSSATGGC
modifications: Aspergillus niger

Tests used:
[1] = tested on: α-L-rhamnosidase from A. terreus; assay: Influence of rhamnose excess on rhamnosidase activity (product inhibition); format: biochemical, Aspergillus terreus; conditions: pNPR substrate, rhamnose solutions 0.6-3 mM added 1:1:1, pH 6.5, 40° C., 30 minutes
Protocol: The analysis was performed only for α-l-rhamnosidase from A. terreus. The influence of rhamnose excess on enzyme activity was investigated using the same colorimetric method as described above (See FIG. 1). The pNPR substrate was first dissolved in DMSO, with concentration adjusted to 300 μM in 100 mM sodium phosphate buffer pH 6.5. Enzymes were diluted to concentration of 30 μg/mL in 100 mM sodium phosphate buffer pH 6.5. Following sequence of rhamnose concentrations were prepared in 100 mM sodium phosphate buffer pH 6.5: 0.6 mM, 1.2 mM, 1.8 mM, 2.4 mM, 3 mM. 240 μL of the total reaction mixture was prepared by adding the substrate solution, the enzyme solution and the rhamnose solution in 1:1:1 ratio. The activity assay was performed on 96-well Microtiter UV plate by Thermo Scientific (Waltham, MA USA). All reactions were done at pH 6.5 and in temperature 40° C. The changes in absorbance were monitored at 405 nm for 30 minutes in Microplate reader Varioskan® Flash. The relative activity of α-L-rhamnosidase from A. terreus was measured using pNPR substrate in the excess of rhamnose in the reaction mix. The analysis was performed in order to study product inhibition phenomenon.

[2] = β-D-glucosidase activity assessment, colorimetric method using pNPG; format: biochemical
Protocol: β-D-glucosidase activity of enzyme from A. terreus was determined by a colorimetric method using p-nitrophenyl-β-glucopyranoside (pNPG). The pNPG substrate was first dissolved in DMSO, with concentration adjusted to 200 μM in 100 mM sodium phosphate buffer pH 6.5. To analyse the substrate preference, the pNPG was mixed with pNPR at 1:1 ratio, then dissolved in DMSO, and concentration of such mixture was adjusted to 200 μM in 100 mM sodium phosphate buffer pH 6.5. As a control, pNPR, prepared as above, at concentration of 200 μM was used. Enzyme was diluted to concentration of 20 μg/mL in 100 mM sodium phosphate buffer pH 6.5. The reactions were prepared by mixing the substrate solution with enzyme solution in 1:1 ratio. The activity assay was performed on 96-well Microtiter UV plate by Thermo Scientific (Waltham, MA USA). […] The changes in relative absorbance values were monitored at 405 nm for about 30 minutes in Microplate reader Varioskan® Flash.
pNPG was used as a substrate to monitor β-D-glucosidase activity of enzyme from A. terreus, the pNPR was used as a substrate showing α-l-rhamnopyranoside activity, and mixture of both substrates was used to determine substrate preference (see FIG. 5). […] The absorbance signal was not detected for the reaction with pNPG, and the reaction kinetics observed for pNPR substrate was not impacted by presence of pNPG in the reaction with mixed substrates.

[3] = Rhamnosidase activity assessment, colorimetric method using pNPR; format: biochemical; conditions: 40° C.
Protocol: α-l-Rhamnosidase activity of enzyme from A. terreus and enzyme from A. niger was determined by a colorimetric method using p-nitrophenyl-α-l-rhamnopyranoside (pNPR) (See the chemical formula equation shown in FIG. 1). The pNPR substrate was first dissolved in DMSO, with concentration adjusted to 200 μM in 100 mM sodium phosphate buffer pH 6.5. Enzymes were diluted to concentration of 20 μg/mL in 100 mM sodium phosphate buffer pH 6.5. The reaction was prepared by mixing the substrate solution with enzyme solution in 1:1 ratio. The activity assay was performed on 96-well Microtiter UV plate by Thermo Scientific (Waltham, MA USA). All reactions were done at pH 6.5 and in temperature 40° C. The changes in absorbance were monitored at 405 nm for 60 minutes in Microplate reader Varioskan® Flash. The relative activity of α-L-rhamnosidase from A. terreus and α-L-rhamnosidase from A. niger were measured against the p-NPR. The reaction was monitored in time at 40° C. and pH 6.5 (See FIG. 3). The enzymes caused release of the product—4-nitrophenol. […] The 70% conversion of R2 is plenty sufficient for test purposes, therefore the enzyme with faster kinetics was used for further analysis.

Row | Molecule | effect of added rhamnose on substrate conversion rate [1] | substrate preference, pNPR versus pNPG and mixed substrates ([2]; pNPG mixed with pNPR 1:1, pH 6.5, 40° C.) | absorbance signal at 405 nm with pNPG (β-D-glucosidase activity) ([2]; pNPG, pH 6.5, 40° C., about 30 minutes) | converted substrate at plateau ([3]; pNPR 100 μM, pH 6.5) [%] | time to reach about 70% of converted substrate ([3]; pNPR 100 μM, pH 6.5) [min] | kinetic behaviour compared between the two enzymes ([3]; pNPR, pH 6.5) | substrate converted more than A. terreus enzyme after 60 min ([3]; pNPR 100 μM, pH 6.5, 60 min) [%]
1 | C[C@H](O)[C@H](O)[C@@H](O)[C@@H](O)C=O [rhamnose] | substrate conversion rate decreased |  |  |  |  |  | 
2 | B1 |  | recognized only pNPR as a substrate | not detected | 70 | 10 | acting faster | 
3 | B2 |  |  |  |  | 30 |  | 10
